Results: patent US20250026834A1 (ZOETIS SERVICES, published 2025)

Target: NGF (target protein of the anti-NGF antibodies mAb2 and mAb3)
Assay: cell-based or functional assay

NGF (target protein of the anti-NGF antibodies mAb2 and mAb3), sequence (P01138 122-241): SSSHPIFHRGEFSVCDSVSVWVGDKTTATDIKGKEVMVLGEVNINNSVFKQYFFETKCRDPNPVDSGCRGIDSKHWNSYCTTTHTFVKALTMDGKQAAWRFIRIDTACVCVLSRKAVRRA

IC50 (cell based potency assay): 0.036 nM
B1: mAb3 (felinized anti-NGF, ZTS-768) IgG1a WT (antibody, V domains shown)
VH: DVQLVESGGDLVKPGGSLRLTCVASGFTYSNYWMHWVRQAPGKGLQWVARIDPYGGGTKHNEKFKRRFTISRDNAKNTLYLQMNSLKTEDTATYYCVRSGYDYYFDVWGQGTLVTVSS
VL: EIQMTQSPSSLSASPGDRVTITCRASENIYSFLAWYQQKPGKVPKLLIYNANTLAEGVPSRFSGSGSGTDFTLTISSLEPEDAATYYCQHHFGTPFTFGSGTKLEIKR
